# According to publication PMC4784862, “DNA Sequence Determinants Controlling Affinity, Stability and Shape of DNA Complexes Bound by the Nucleoid Protein Fis”:
# B1: F1±9C (dsDNA)
# DNA 1: AAATCTGTTTGAATTTTGAGCAGATTT
# DNA 2: AAATCTGCTCAAAATTCAAACAGATTT
# B2: F1±10C (dsDNA)
# DNA 1: AAACTTGTTTGAATTTTGAGCAAGTTT
# DNA 2: AAACTTGCTCAAAATTCAAACAAGTTT
# B3: F1±9G (dsDNA)
# DNA 1: AAATGTGTTTGAATTTTGAGCACATTT
# DNA 2: AAATGTGCTCAAAATTCAAACACATTT
# B4: F1±10A (dsDNA)
# DNA 1: AAAATTGTTTGAATTTTGAGCAATTTT
# DNA 2: AAAATTGCTCAAAATTCAAACAATTTT
# B5: F1±10G (dsDNA)
# DNA 1: AAAGTTGTTTGAATTTTGAGCAACTTT
# DNA 2: AAAGTTGCTCAAAATTCAAACAACTTT
# How the values were obtained:
# Conditions in all cases: protein: recombinant; chain copies: 2; label: 5'-32P
# Fis WT [1] = target: T1, Fis WT (UniProt P0A6R3 1-98); assay: EMSA; t1/2 30 min; EMSA: 20 mM Hepes pH 7.5, 0.15 M NaCl, 5% glycerol, 0.5 mg/ml BSA, 1 mM EDTA, 1 mM DTT, 0.1 nM 32P 27 bp probe, 50 ug/ml poly dI/dC; temperature not stated
# T1 sequence (P0A6R3 whole entry): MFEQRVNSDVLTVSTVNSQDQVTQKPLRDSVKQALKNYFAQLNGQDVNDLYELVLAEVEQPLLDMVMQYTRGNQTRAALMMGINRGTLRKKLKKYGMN
# Fis WT [2] = target: T1, Fis WT; assay: EMSA; t1/2 44 min; EMSA: 20 mM Hepes pH 7.5, 0.15 M NaCl, 5% glycerol, 0.5 mg/ml BSA, 1 mM EDTA, 1 mM DTT, 0.1 nM 32P 27 bp probe, 50 ug/ml poly dI/dC; temperature not stated
# Fis WT [3] = target: T1, Fis WT; assay: EMSA; t1/2 25 min; EMSA: 20 mM Hepes pH 7.5, 0.15 M NaCl, 5% glycerol, 0.5 mg/ml BSA, 1 mM EDTA, 1 mM DTT, 0.1 nM 32P 27 bp probe, 50 ug/ml poly dI/dC; temperature not stated
# Fis WT [4] = target: T1, Fis WT; assay: EMSA; t1/2 36 min; EMSA: 20 mM Hepes pH 7.5, 0.15 M NaCl, 5% glycerol, 0.5 mg/ml BSA, 1 mM EDTA, 1 mM DTT, 0.1 nM 32P 27 bp probe, 50 ug/ml poly dI/dC; temperature not stated
# Fis WT [5] = target: T1, Fis WT; assay: EMSA; t1/2 38 min; EMSA: 20 mM Hepes pH 7.5, 0.15 M NaCl, 5% glycerol, 0.5 mg/ml BSA, 1 mM EDTA, 1 mM DTT, 0.1 nM 32P 27 bp probe, 50 ug/ml poly dI/dC; temperature not stated
binder,measurement,setting,value
B1,Kd,Fis WT [1],0.3 ± 0.1 nM
B2,Kd,Fis WT [2],0.3 ± 0.1 nM
B3,Kd,Fis WT [3],0.6 ± 0.2 nM
B4,Kd,Fis WT [4],0.5 ± 0.1 nM
B5,Kd,Fis WT [5],0.5 ± 0.1 nM
